Series [1] deals with HeLa Kyoto. Kind of series: solubility change mitosis vs G1/S (difference of NP-40 vs SDS log2 ratios) (log2 ratio difference); higher = more soluble in mitosis.
Series [2] relates to HeLa Kyoto. Kind of series: solubility in G1/S (NP-40 vs SDS abundance) (log2 ratio); higher = more soluble. The following applies: cell cycle stage: G1/S.
The subject of series [3] is HeLa Kyoto. Kind of series: melting temperature (median over replicates), in situ; higher = more thermally stable.
Series [4] deals with HeLa Kyoto. Kind of series: thermal stability score vs G1/S (z-score of summed log2 fold changes over temperatures); higher = more thermally stable than in G1/S.
[5] abbreviates: cell cycle stage: early G1 (4.5 h after nocodazole release).

The values that follow come from the supplement of paper PMC5998384.
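Throughout, for melting temperature (median over replicates), in situ: HeLa Kyoto cells synchronized by double thymidine or nocodazole block, proteins quantified by TMT10plex mass spectrometry, three independent biological replicates.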
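Throughout, for solubility change mitosis vs G1/S (difference of NP-40 vs SDS log2 ratios): synchronized HeLa Kyoto cells (double thymidine block for G1/S, nocodazole release for mitosis), protein amounts in NP-40 versus SDS lysates quantified by mass spectrometry, three biological replicates.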
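Throughout, for solubility in G1/S (NP-40 vs SDS abundance): HeLa Kyoto cells arrested at G1/S by double thymidine block, proteins quantified by TMT10plex mass spectrometry in mild NP-40 versus SDS extracts, three biological replicates.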
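Throughout, for thermal stability score vs G1/S (z-score of summed log2 fold changes over temperatures): synchronized HeLa Kyoto cells, proteins quantified by TMT10plex mass spectrometry, three biological replicates, mitosis taken 0.5 h after nocodazole release, G1/S directly after double thymidine block.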

For “MLYFSLFWAARPLQRCGQLVRMAIRAQHSNAAQTQTGEANRGWTGQESLSDSDPEMWELLQREKDRQCRGLELIASENFCSRAALEALGSCLNNKYSEGYPGKRYYGGAEVVDEIELLCQRRALEAFDLDPAQWGVNVQPYSGSPANLAVYTALLQPHDRIMGLDLPDGGHLTHGYMSDVKRISATSIFFESMPYKLNPKTGLIDYNQLALTARLFRPRLIIAGTSAYARLIDYARMREVCDEVKAHLLADMAHISGLVAAKVIPSPFKHADIVTTTTHKTLRGARSGLIFYRKGVKAVDPKTGREIPYTFEDRINFAVFPSLQGGPHNHAIAAVAVALKQACTPMFREYSLQVLKNARAMADALLERGYSLVSGGTDNHLVLVDLRPKGLDGARAERVLELVSITANKNTCPGDRSAITPGGLRLGAPALTSRQFREDDFRRVVDFIDEGVNIGLEVKSKTAKLQDFKSFLLKDSETSQRLANLRQRVEQFARAFPMPGFDEH [SHMT2]”, the “solubility change mitosis (log2)” value in the series on HeLa Kyoto [1] is -0.0179. Besides, the “solubility in G1/S (log2)” value in the series with HeLa Kyoto [2] turned out to be 0.416. The melting temperature in the series on HeLa Kyoto [3] (cell cycle stage: G1/S) is 56.7 °C; in the series with HeLa Kyoto [3] (cell cycle stage: mitosis), 56.8 °C. Also, the thermal stability score in the series with HeLa Kyoto [4] (setting [5]) amounted to 0.0206; with HeLa Kyoto [4] (cell cycle stage: mitosis) it was 0.314.

On to “MMAAEAGSEEGGPVTAGAGGGGAAAGSSAYPAVCRVKIPAALPVAAAPYPGLVETGVAGTLGGGAALGSEFLGAGSVAGALGGAGLTGGGTAAGVAGAAAGVAGAAVAGPSGDMALTKLPTSLLAETLGPGGGFPPLPPPPYLPPLGAGLGTVDEGDSLDGPEYEEEEVAIPLTAPPTNQWYHGKLDRTIAEERLRQAGKSGSYLIRESDRRPGSFVLSFLSQMNVVNHFRIIAMCGDYYIGGRRFSSLSDLIGYYSHVSCLLKGEKLLYPVAPPEPVEDRRRVRAILPYTKVPDTDEISFLKGDMFIVHNELEDGWMWVTNLRTDEQGLIVEDLVEEVGREEDPHEGKIWFHGKISKQEAYNLLMTVGQVCSFLVRPSDNTPGDYSLYFRTNENIQRFKICPTPNNQFMMGGRYYNSIGDIIDHYRKEQIVEGYYLKEPVPMQDQEQVLNDTVDGKEIYNTIRRKTKDAFYKNIVKKGYLLKKGKGKRWKNLYFILEGSDAQLIYFESEKRATKPKGLIDLSVCSVYVVHDSLFGRPNCFQIVVQHFSEEHYIFYFAGETPEQAEDWMKGLQAFCNLRKSSPGTSNKRLRQVSSLVLHIEEAHKLPVKHFTNPYCNIYLNSVQVAKTHAREGQNPVWSEEFVFDDLPPDINRFEITLSNKTKKSKDPDILFMRCQLSRLQKGHATDEWFLLSSHIPLKGIEPGSLRVRARYSMEKIMPEEEYSEFKELILQKELHVVYALSHVCGQDRTLLASILLRIFLHEKLESLLLCTLNDREISMEDEATTLFRATTLASTLMEQYMKATATQFVHHALKDSILKIMESKQSCELSPSKLEKNEDVNTNLTHLLNILSELVEKIFMASEILPPTLRYIYGCLQKSVQHKWPTNTTMRTRVVSGFVFLRLICPAILNPRMFNIISDSPSPIAARTLILVAKSVQNLANLVEFGAKEPYMEGVNPFIKSNKHRMIMFLDELGNVPELPDTTEHSRTDLSRDLAALHEICVAHSDELRTLSNERGAQQHVLKKLLAITELLQQKQNQYTKTNDVR [RASA1]”, for which the “solubility change mitosis (log2)” value with HeLa Kyoto [1] is -0.135. Besides, the “solubility in G1/S (log2)” value in the series with HeLa Kyoto [2] was -0.0958. Further, the figures for the melting temperature in the series on HeLa Kyoto [3] (cell cycle stage: G1/S) and with HeLa Kyoto [3] (cell cycle stage: mitosis) were 49.8 °C and 50.1 °C, respectively. The thermal stability score with HeLa Kyoto [4] (setting [5]) turned out to be 0.554; in the series with HeLa Kyoto [4] (cell cycle stage: mitosis), 0.915.

For the sequence “MMAAVPPGLEPWNRVRIPKAGNRSAVTVQNPGAALDLCIAAVIKECHLVILSLKSQTLDAETDVLCAVLYSNHNRMGRHKPHLALKQVEQCLKRLKNMNLEGSIQDLFELFSSNENQPLTTKVCVVPSQPVVELVLMKVLGACKLLLRLLDCCCKTFLLTVKHLGLQEFIILNLVMVGLVSRLWVLYKGVLKRLILLYEPLFGLLQEVARIQPMPYFKDFTFPSDITEFLGQPYFEAFKKKMPIAFAAKGINKLLNKLFLINEQSPRASEETLLGISKKAKQMKINVQNNVDLGQPVKNKRVFKEESSEFDVRAFCNQLKHKATQETSFDFKCSQSRLKTTKYSSQKVIGTPHAKSFVQRFREAESFTQLSEEIQMAVVWCRSKKLKAQAIFLGNKLLKSNRLKHLEAQGTSLPKKLECIKTSICNHLLRGSGIKTSKHHLRQRRSQNKFLRRQRKPQRKLQSTLLREIQQFSQGTRKSATDTSAKWRLSHCTVHRTDLYPNSKQLLNSGVSMPVIQTKEKMIHENLRGIHENETDSWTVMQINKNSTSGTIKETDDIDDIFALMGV [NEPRO]”, the “solubility change mitosis (log2)” value with HeLa Kyoto [1] was 0.574. Also, in the series with HeLa Kyoto [2], the “solubility in G1/S (log2)” value was -0.993. In addition, the melting temperature in the series on HeLa Kyoto [3] (cell cycle stage: G1/S) turned out to be 49.7 °C; with HeLa Kyoto [3] (cell cycle stage: mitosis), 50.3 °C. Moreover, the thermal stability score in the series on HeLa Kyoto [4] (setting [5]) is -0.703; in the series with HeLa Kyoto [4] (cell cycle stage: mitosis) it was -1.65.

As for “MMADGAAAGAGGSPSLRELRARMVAAANEIAKERRKQDVVNRVATHSSNIRSTFKPVIDGSMLKNDIKQRLARERREEKRRQQDANKETQLLEKERKTKLQYEKQMEERQRKLKERKEKEEQRRIAAEEKRHQKDEAQKEKFTAILYRTLERRRLADDYQQKRWSWGGSAMANSESKTANKRSASTEKLEQGTSALIRQMPLSSAGLQNSVAKRKTDKERSSSLNRRDSNLHSSTDKEQAERKPRVTGVTNYVMQYVTVPLRKCTSDELRAVMFPMSTMKIPPQTKVEESPLEKVETPPKASVDAPPQVNVEVFCNTSMEASPKAGVGMAPEVSTDSFPVVSVDVSPVVSTYDSEMSMDASPELSIEALPKVDLETVPKVSIVASPEASLEAPPEVSLEALPEVSVEAAPEGSLEAPPKGSAEVAPKESVKGSPKESMEASPEAMVKASPKTSLEASMEASPKAKARDAPKKSEMDKQALIPIAKKRLSSYTECYKWSSSPENACGLPSPISTNRQIQKNCPPSPLPLISKQSPQTSFPYKIMPIQHTLSVQSASSTVKKKKETVSKTTNRCEALSQRHMIYEESGNKSTAGIMNAEAATKILTELRRLAREQREKEEEERQREEMQQRVIKKSKDMAKEAVGGQAEDHLKLKDGQQQNETKKKKGWLDQEDQEAPLQKGDAKIKAQEEADKRKKEHERIMLQNLQERLERKKRIEEIMKRTRKTDVNASKVTETSSHDIYEEAEADNEESDKDSLNEMFPSAILNGTGSPTKFKMPFNNAKKMTHKLVFLEDGTSQVRKEPKTYFNGDLKNFRQKSMKDTSIQEVVSRPSSKRMTSHTTKTRKADETNTTSRSSAQTKSEGFHDILPKSSDTFRQ [MAP7D3]”, the “solubility change mitosis (log2)” value in the series on HeLa Kyoto [1] is 0.189. For the same sequence, the “solubility in G1/S (log2)” value with HeLa Kyoto [2] was -0.211. Further, the melting temperature in the series on HeLa Kyoto [3] (cell cycle stage: G1/S) worked out at 50.4 °C; in the series on HeLa Kyoto [3] (cell cycle stage: mitosis), 52.8 °C. In addition, the figures for the thermal stability score with HeLa Kyoto [4] (setting [5]) and with HeLa Kyoto [4] (cell cycle stage: mitosis) were 2.41 and 6.63, respectively.
